Experimental data from PMC3919625.

Biological target: 2G12 IgG monomer (human)
Assay: SEC

stoichiometry N (FcRn per 2G12 monomer): 2
B1: soluble neonatal Fc receptor (FcRn) (receptor)
chain 1: AEPRLPLMYHLAAVSDLSTGLPSFWATGWLGAQQYLTYNNLRQEADPCGAWIWENQVSWYWEKETTDLKSKEQLFLEAIRTLENQINGTFTLQGLLGCELAPDNSSLPTAVFALNGEEFMRFNPRTGNWSGEWPETDIVGNLWMKQPEAARKESEFLLTSCPERLLGHLERGRQNLEWKEPPSMRLKARPGNSGSSVLTCAAFSFYPPELKFRFLRNGLASGSGNCSTGPNGDGSFHAWSLLEVKRGDEHHYQCQVEHEGLAQPLTVDLDSPARSS
chain 2: IQKTPQIQVYSRHPPENGKPNFLNCYVSQFHPPQIEIELLKNGKKIPNIEMSDLSFSKDWSFYILAHTEFTPTETDVYACRVKHVTLKEPKTVTWDRDM
